# PMC4522599
# Assays:
# [1] = biological target: In trans activated C25A-cathepsin S (human); test: surface acoustic wave biosensor (sam5BLUE); C25A-cathepsin S immobilized; heat-destabilized Bet v 1 (10 min at 60 °C, spin-filtered) injected, 1a at 10 to 100 μM, 1d at 2.5 to 40 μM; pH 6.7
# [2] = biological target: In trans activated C25A-cathepsin S (human); test: surface acoustic wave biosensor (sam5BLUE); C25A-cathepsin S coupled by EDC/NHS to a short-chain COOH sensor chip; untreated Bet v 1 injected at increasing concentrations (5 or 10 to 100 μM); 20 mM imidazole pH 6.7, 50 mM NaCl; apparent KD from kobs by linear regression
fold reduction in affinity against untreated Bet v 1d [1],Kd [2],Binder
5 fold,5.4 µM,"Bet v 1d (Bet v 1.0401), hypoallergenic isoform of the major birch pollen allergen (natural protein) MGVFNYEIETTSVIPAARLFKAFILDGDNLVPKVAPQAISSVENIEGNGGPGTIKKINFPEGFPFKYVKDRVDEVDHTNFKYNYSVIEGGPVGDTLEKISNEIKIVATPDGGCVLKISNKYHTKGNHEVKAEQVKASKEMGETLLRAVESYLLAHSDAYN"
,21.5 µM,"Bet v 1a (Bet v 1.0101), major birch pollen allergen (natural protein) GVFNYETETTSVIPAARLFKAFILDGDNLFPKVAPQAISSVENIEGNGGPGTIKKISFPEGFPFKYVKDRVDEVDHTNFKYNYSVIEGGPIGDTLEKISNEIKIVATPDGGSILKISNKYHTKGDHEVKAEQVKASKEMGETLLRAVESYLLAHSDAYN"
